T1: Human CXCR2 (human, UniProt P25025 1-360)
T1 sequence: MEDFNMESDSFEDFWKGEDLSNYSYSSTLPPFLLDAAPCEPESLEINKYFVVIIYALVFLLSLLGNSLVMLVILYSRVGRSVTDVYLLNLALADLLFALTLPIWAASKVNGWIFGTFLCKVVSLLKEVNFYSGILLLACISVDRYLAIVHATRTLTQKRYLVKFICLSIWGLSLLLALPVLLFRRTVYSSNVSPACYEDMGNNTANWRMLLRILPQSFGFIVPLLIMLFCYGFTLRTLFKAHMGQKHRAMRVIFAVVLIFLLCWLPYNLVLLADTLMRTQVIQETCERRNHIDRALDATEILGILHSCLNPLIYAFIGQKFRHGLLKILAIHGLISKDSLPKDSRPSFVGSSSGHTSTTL

T2: Cynomolgus CXCR2 (cynomolgus, UniProt Q28519 3-353 (rhesus entry))
T2 chain: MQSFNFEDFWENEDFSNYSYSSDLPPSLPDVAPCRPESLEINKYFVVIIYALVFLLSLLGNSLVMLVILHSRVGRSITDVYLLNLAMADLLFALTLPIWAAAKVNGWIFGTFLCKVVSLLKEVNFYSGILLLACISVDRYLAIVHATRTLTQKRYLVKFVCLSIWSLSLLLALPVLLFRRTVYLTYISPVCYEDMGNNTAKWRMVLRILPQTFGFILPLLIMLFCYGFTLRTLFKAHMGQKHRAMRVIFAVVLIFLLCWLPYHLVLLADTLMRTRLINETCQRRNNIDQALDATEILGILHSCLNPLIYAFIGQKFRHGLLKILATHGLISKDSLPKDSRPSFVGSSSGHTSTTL


Key:
Experiment in all cases: cell-based or functional assay
Human CXCR2 [1] = biological target: T1, Human CXCR2
Cynomolgus CXCR2 = biological target: T2, Cynomolgus CXCR2
Human CXCR2 [2] = biological target: T1, Human CXCR2; remark: listed apart in the source

| Binder | [35S]GTPγS % inhibition of max, GRO-α (Human CXCR2 [1]) [%] | [35S]GTPγS accumulation IC50, GRO-α (Human CXCR2 [1]) [nM] | FLIPR IC50, GRO-α induced intracellular calcium release (Cynomolgus CXCR2) [nM] | FLIPR IC50, GRO-α induced intracellular calcium release (Human CXCR2 [2]) [nM] | [35S]GTPγS % inhibition of max, ENA-78 (Human CXCR2 [1]) [%] | [35S]GTPγS % inhibition of max, IL-8 (Human CXCR2 [1]) [%] | [35S]GTPγS accumulation IC50, ENA-78 (Human CXCR2 [1]) [nM] | [35S]GTPγS accumulation IC50, IL-8 (Human CXCR2 [1]) [nM] |
| --- | --- | --- | --- | --- | --- | --- | --- | --- |
| CXCR20022 (VHH, not shown: small tags and cut ends) EVQLVESGGGLVQAGGSLRLSCAASGRTFSDYAMGWFRQAPGKEREFVAAITWNGGRVFYTASVKGRFTISRDNAKNTMYLQMNSLKPEDTAVYYCAADKDRRTDYLGHPVAYWGQGTQVTVSSGGGGSGGGGSGGGGSGGGGSGGGGSGGGGSGGGGSEVQLVESGGGLVQAGGSLRLSCAASGRTFSDYAMGWFRQAPGKEREFVAAITWNGGRVFYTASVKGRFTISRDNAKNTMYLQMNSLKPEDTAVYYCAADKDRRTDYLGHPVAYWGQGTQVTVSS | 100 | 28.5 | 8.64 | 9.34 | – | – | – | – |
| CXCR20011 (VHH, not shown: small tags and cut ends) EVQLVESGGGLVQPGGSLRLSCVASGSIVRINTMGWYRQTPGKQRELVADITSGGNINYIDAVKGRFTISRDNTKNTVYLQMNSLKPEDTAVYYCNAEIVVLVGVWTQRARTGNYWGQGTQVTVSSGGGGSGGGGSGGGGSGGGGSGGGGSGGGGSGGGGSEVQLVESGGGLVQPGGSLRLSCVASGSIVRINTMGWYRQTPGKQRELVADITSGGNINYIDAVKGRFTISRDNTKNTVYLQMNSLKPEDTAVYYCNAEIVVLVGVWTQRARTGNYWGQGTQVTVSS | – | – | – | 137 | – | – | – | – |
| CXCR20031 (bispecific antibody, not shown: small tags and cut ends) EVQLVESGGELVQPGGSLRLSCAASGSILTINAMGWYRQAPGKQRELVVRRTRGGSTTYQDSVKGRFTISADIAKKTMYLQMNSLKPEDTAVYYCMLDDRGGVYWGQGTQVTVSSGGGGSGGGGSGGGGSGGGGSGGGGSGGGGSGGGGSEVQLVESGGGLVQPGGSLRLSCVASGRIFSSNAMGWFRQAPGKEREFVAAITWRSGGSAYYADSAKGRFTISRDNAKNTVYLQMNSLKPEDTAVYYCAAGGSSWLSFPPDYWGQGTQVTVSS | – | – | 4.26 | 15.2 | 100 | 100 | 1.38 | 0.84 |
| CXCR20029 (other, not shown: small tags and cut ends) EVQLVESGGGLVQPGGSLRLSCVASGRIFSSNAMGWFRQAPGKEREFVAAITWRSGGSAYYADSAKGRFTISRDNAKNTVYLQMNSLKPEDTAVYYCAAGGSSWLSFPPDYWGQGTQVTVSSGGGGSGGGGSGGGGSGGGGSGGGGSGGGGSGGGGSEVQLVESGGGLVQAGGSLTLSCAVSGSTFRINTMGWYRRAPGKQRELVAARDRGGYINYVDSVKGRFTVSRDNAKPTMYLQMNSLKPEDTAVYYCHAGTQDRTGRNFDRWGQGTQVTVSS | – | – | 10.1 | 17.1 | – | – | – | – |
| CXCR20032 (bispecific antibody, not shown: small tags and cut ends) EVQLVESGGELVQPGGSLRLSCAASGSILTINAMGWYRQAPGKQRELVVRRTRGGSTTYQDSVKGRFTISADIAKKTMYLQMNSLKPEDTAVYYCMLDDRGGVYWGQGTQVTVSSGGGGSGGGGSGGGGSGGGGSGGGGSGGGGSGGGGSEVQLVESGGGLVQAGGSLRLSCAASGRTFSDYAMGWFRQAPGKEREFVAAITWNGGRVFYTASVKGRFTISRDNAKNTMYLQMNSLKPEDTAVYYCAADKDRRTDYLGHPVAYWGQGTQVTVSS | – | – | 3.65 | 14.7 | 100 | 100 | 0.116 | 0.997 |
| CXCR20024 (VHH, not shown: small tags and cut ends) EVQLVESGGGLVQPGGSLRLSCVASGRIFSSNAMGWFRQAPGKEREFVAAITWRSGGSAYYADSAKGRFTISRDNAKNTVYLQMNSLKPEDTAVYYCAAGGSSWLSFPPDYWGQGTQVTVSSGGGGSGGGGSGGGGSGGGGSGGGGSGGGGSGGGGSEVQLVESGGGLVQPGGSLRLSCVASGRIFSSNAMGWFRQAPGKEREFVAAITWRSGGSAYYADSAKGRFTISRDNAKNTVYLQMNSLKPEDTAVYYCAAGGSSWLSFPPDYWGQGTQVTVSS | 100 | 30.3 | 11.8 | 26.4 | – | – | – | – |
| CXCR20016 (other, not shown: small tags and cut ends) EVQLVESGGGLVQPGGSVRLSCVASGIIFRLSALGWTRQGPGKAREWVAGINSDGTTNYADPVKGRFTISRDNAKNTIYLHMDMLKPEDTAVYYCASGKYRGQGTQVTVSSGGGGSGGGGSGGGGSGGGGSGGGGSGGGGSGGGGSEVQLVESGGELVQPGGSLRLSCAASGSILTINAMGWYRQAPGKQRELVVRRTRGGSTTYQDSVKGRFTISADIAKKTMYLQMNSLKPEDTAVYYCMLDDRGGVYWGQGTQVTVSS | – | – | 1100 | 2.36 | – | – | – | – |
| CXCR20027 (bispecific antibody, not shown: small tags and cut ends) EVQLVESGGGLVQPGGSLRLSCVASGRIFSSNAMGWFRQAPGKEREFVAAITWRSGGSAYYADSAKGRFTISRDNAKNTVYLQMNSLKPEDTAVYYCAAGGSSWLSFPPDYWGQGTQVTVSSGGGGSGGGGSGGGGSGGGGSGGGGSGGGGSGGGGSEVQLVESGGGLVQAGGSLRLSCAASGRTFSDYAMGWFRQAPGKEREFVAAITWNGGRVFYTASVKGRFTISRDNAKNTMYLQMNSLKPEDTAVYYCAADKDRRTDYLGHPVAYWGQGTQVTVSS | – | – | 12.7 | 17.8 | – | – | – | – |
| CXCR20036 (other, not shown: small tags and cut ends) EVQLVESGGGLVQAGGSLTLSCAVSGSTFRINTMGWYRRAPGKQRELVAARDRGGYINYVDSVKGRFTVSRDNAKPTMYLQMNSLKPEDTAVYYCHAGTQDRTGRNFDRWGQGTQVTVSSGGGGSGGGGSGGGGSGGGGSGGGGSGGGGSGGGGSEVQLVESGGGLVQAGGSLRLSCAASGRTFSDYAMGWFRQAPGKEREFVAAITWNGGRVFYTASVKGRFTISRDNAKNTMYLQMNSLKPEDTAVYYCAADKDRRTDYLGHPVAYWGQGTQVTVSS | – | – | 4.27 | 7.86 | – | – | – | – |
| CXCR20017 (other, not shown: small tags and cut ends) EVQLVESGGGLVQPGGSLRLSCVASGSIVRINTMGWYRQTPGKQRELVADITSGGNINYIDAVKGRFTISRDNTKNTVYLQMNSLKPEDTAVYYCNAEIVVLVGVWTQRARTGNYWGQGTQVTVSSGGGGSGGGGSGGGGSGGGGSGGGGSGGGGSGGGGSEVQLVESGGGLVQPGGSVRLSCVASGIIFRLSALGWTRQGPGKAREWVAGINSDGTTNYADPVKGRFTISRDNAKNTIYLHMDMLKPEDTAVYYCASGKYRGQGTQVTVSS | – | – | 1080 | 22.9 | – | – | – | – |
| CXCR20015 (other, not shown: small tags and cut ends) EVQLVESGGELVQPGGSLRLSCAASGSILTINAMGWYRQAPGKQRELVVRRTRGGSTTYQDSVKGRFTISADIAKKTMYLQMNSLKPEDTAVYYCMLDDRGGVYWGQGTQVTVSSGGGGSGGGGSGGGGSGGGGSGGGGSGGGGSGGGGSEVQLVESGGGLVQPGGSVRLSCVASGIIFRLSALGWTRQGPGKAREWVAGINSDGTTNYADPVKGRFTISRDNAKNTIYLHMDMLKPEDTAVYYCASGKYRGQGTQVTVSS | – | – | 2870 | 2.78 | – | – | – | – |
| CXCR20021 (bispecific antibody, not shown: small tags and cut ends) EVQLVESGGGLVQAGESLRLSCAASGSTFDFKVMGWYRQPPGKQREGVAAIRLSGNMHYAESVKGRFTISKANAKNTVYLQMNSLRPEDTAVYYCKVNIRGQDYWGQGTQVTVSSGGGGSGGGGSGGGGSGGGGSGGGGSGGGGSGGGGSEVQLVESGGGLVQPGGSLRLSCVASGRIFSSNAMGWFRQAPGKEREFVAAITWRSGGSAYYADSAKGRFTISRDNAKNTVYLQMNSLKPEDTAVYYCAAGGSSWLSFPPDYWGQGTQVTVSS | 100 | 0.551 | 2.31 | 7.32 | 100 | 100 | 0.787 | 0.827 |
| CXCR20025 (bispecific antibody, not shown: small tags and cut ends) EVQLVESGGGLVQAGGSLRLSCAASGRTFSDYAMGWFRQAPGKEREFVAAITWNGGRVFYTASVKGRFTISRDNAKNTMYLQMNSLKPEDTAVYYCAADKDRRTDYLGHPVAYWGQGTQVTVSSGGGGSGGGGSGGGGSGGGGSGGGGSGGGGSGGGGSEVQLVESGGGLVQAGESLRLSCAASGSTFDFKVMGWYRQPPGKQREGVAAIRLSGNMHYAESVKGRFTISKANAKNTVYLQMNSLRPEDTAVYYCKVNIRGQDYWGQGTQVTVSS | 100 | 0.891 | 7.88 | 12.2 | – | – | – | – |
| CXCR20013 (bispecific antibody, not shown: small tags and cut ends) EVQLVESGGELVQPGGSLRLSCAASGSILTINAMGWYRQAPGKQRELVVRRTRGGSTTYQDSVKGRFTISADIAKKTMYLQMNSLKPEDTAVYYCMLDDRGGVYWGQGTQVTVSSGGGGSGGGGSGGGGSGGGGSGGGGSGGGGSGGGGSEVQLVESGGGLVQPGGSLRLSCVASGSIVRINTMGWYRQTPGKQRELVADITSGGNINYIDAVKGRFTISRDNTKNTVYLQMNSLKPEDTAVYYCNAEIVVLVGVWTQRARTGNYWGQGTQVTVSS | – | – | 29.2 | 2.93 | – | – | – | – |
